# Numbered stars: 1 amine (or outer) side, 2 acyl side, 3 side chain; on linkers, the order of the positions; unused ones are H or OH. Bridge positions count the residues as written; N and C are the ends. Side chains are listed from the residue outwards. Ends that are not written are not given here. * marks the point of attachment. C20 diacid = O=C(O)CCCCCCCCCCCCCCCCCCC(=O)*; γGlu = O=C(O)[C@H](CCC(=O)[*:2])N[*:1]; AEEA = NCCOCCOCC(=O)O
# T1: human amylin receptor (amylin 3(a) receptor: human calcitonin receptor plus RAMP-3) (human, UniProt P30988 25-474; O60896 24-148, limits assumed)
# T1 sequence (looked up) 1: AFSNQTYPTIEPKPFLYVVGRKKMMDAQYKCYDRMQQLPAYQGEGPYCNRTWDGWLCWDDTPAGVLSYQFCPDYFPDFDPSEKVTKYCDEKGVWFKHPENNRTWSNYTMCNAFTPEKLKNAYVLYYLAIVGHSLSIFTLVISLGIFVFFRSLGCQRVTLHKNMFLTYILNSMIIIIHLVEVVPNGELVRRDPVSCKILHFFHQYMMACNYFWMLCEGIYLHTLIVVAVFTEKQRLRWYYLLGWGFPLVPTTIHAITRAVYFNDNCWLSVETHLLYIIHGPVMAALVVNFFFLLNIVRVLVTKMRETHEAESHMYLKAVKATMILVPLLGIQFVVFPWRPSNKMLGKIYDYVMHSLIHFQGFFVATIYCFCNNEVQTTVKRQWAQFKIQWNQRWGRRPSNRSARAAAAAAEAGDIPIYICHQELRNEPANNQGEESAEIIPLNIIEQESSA
# T1 sequence (looked up) 2: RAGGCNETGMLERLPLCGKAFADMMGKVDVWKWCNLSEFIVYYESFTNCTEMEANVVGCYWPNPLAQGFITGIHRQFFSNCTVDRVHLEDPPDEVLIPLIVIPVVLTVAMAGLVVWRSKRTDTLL
# T2: human calcitonin receptor (human, UniProt P30988 25-474)
# T2 sequence (looked up): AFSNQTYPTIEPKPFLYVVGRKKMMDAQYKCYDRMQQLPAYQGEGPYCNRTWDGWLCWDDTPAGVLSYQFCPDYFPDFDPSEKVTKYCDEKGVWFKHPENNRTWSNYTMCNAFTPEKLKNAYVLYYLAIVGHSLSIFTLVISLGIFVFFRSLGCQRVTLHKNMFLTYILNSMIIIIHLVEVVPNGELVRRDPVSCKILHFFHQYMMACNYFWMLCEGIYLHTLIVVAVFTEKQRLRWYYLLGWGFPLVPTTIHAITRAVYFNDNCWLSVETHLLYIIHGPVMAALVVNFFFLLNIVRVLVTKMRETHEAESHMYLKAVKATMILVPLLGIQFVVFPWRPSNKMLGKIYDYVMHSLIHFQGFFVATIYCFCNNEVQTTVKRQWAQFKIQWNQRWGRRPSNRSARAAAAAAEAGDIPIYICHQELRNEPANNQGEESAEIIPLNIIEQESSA
# Experiments:
# [1] = target: T1, human amylin receptor (amylin 3(a) …); test: cell-based or functional assay
# [2] = target: T2, human calcitonin receptor; test: cell-based or functional assay
Binder,Ratio hCT/hAmylin funct. [1] [ratio],hAmylin-R funct. EC50 [1] [nM],hCTR funct. EC50 [2] [nM]
"K([γGlu-γGlu-C20 diacid])CNTATCATQRLADFLRHSSPNFGAIPSSTNVGSDTY-NH2 (disulfide 2-7; N-terminus assumed; SMILES CC[C@H](C)[C@H](NC(=O)[C@H](C)NC(=O)CNC(=O)[C@H](Cc1ccccc1)NC(=O)[C@H](CC(N)=O)NC(=O)[C@@H]1CCCN1C(=O)[C@H](CO)NC(=O)[C@H](CO)NC(=O)[C@H](Cc1c[nH]cn1)NC(=O)[C@H](CCCNC(=N)N)NC(=O)[C@H](CC(C)C)NC(=O)[C@H](Cc1ccccc1)NC(=O)[C@H](CC(=O)O)NC(=O)[C@H](C)NC(=O)[C@H](CC(C)C)NC(=O)[C@H](CCCNC(=N)N)NC(=O)[C@H](CCC(N)=O)NC(=O)[C@@H](NC(=O)[C@H](C)NC(=O)[C@@H]1CSSC[C@H](NC(=O)[C@@H](N)CCCCNC(=O)CC[C@H](NC(=O)CC[C@H](NC(=O)CCCCCCCCCCCCCCCCCCC(=O)O)C(=O)O)C(=O)O)C(=O)N[C@@H](CC(N)=O)C(=O)N[C@@H]([C@@H](C)O)C(=O)N[C@@H](C)C(=O)N[C@@H]([C@@H](C)O)C(=O)N1)[C@@H](C)O)C(=O)N1CCC[C@H]1C(=O)N[C@@H](CO)C(=O)N[C@@H](CO)C(=O)N[C@H](C(=O)N[C@@H](CC(N)=O)C(=O)N[C@H](C(=O)NCC(=O)N[C@@H](CO)C(=O)N[C@@H](CC(=O)O)C(=O)N[C@H](C(=O)N[C@@H](Cc1ccc(O)cc1)C(N)=O)[C@@H](C)O)C(C)C)[C@@H](C)O, Synthetic acylated analogue of human amylin; also called compound 2)",16.4,0.182,3
"{C20 diacid-γGlu}-KCNTATCATQRLAEFLRHSSPNFGAIPSSTNVGKNTY-NH2 (disulfide 2-7; SMILES CC[C@H](C)[C@H](NC(=O)[C@H](C)NC(=O)CNC(=O)[C@H](Cc1ccccc1)NC(=O)[C@H](CC(N)=O)NC(=O)[C@@H]1CCCN1C(=O)[C@H](CO)NC(=O)[C@H](CO)NC(=O)[C@H](Cc1c[nH]cn1)NC(=O)[C@H](CCCNC(=N)N)NC(=O)[C@H](CC(C)C)NC(=O)[C@H](Cc1ccccc1)NC(=O)[C@H](CCC(=O)O)NC(=O)[C@H](C)NC(=O)[C@H](CC(C)C)NC(=O)[C@H](CCCNC(=N)N)NC(=O)[C@H](CCC(N)=O)NC(=O)[C@@H](NC(=O)[C@H](C)NC(=O)[C@@H]1CSSC[C@H](NC(=O)[C@H](CCCCN)NC(=O)CC[C@H](NC(=O)CCCCCCCCCCCCCCCCCCC(=O)O)C(=O)O)C(=O)N[C@@H](CC(N)=O)C(=O)N[C@@H]([C@@H](C)O)C(=O)N[C@@H](C)C(=O)N[C@@H]([C@@H](C)O)C(=O)N1)[C@@H](C)O)C(=O)N1CCC[C@H]1C(=O)N[C@@H](CO)C(=O)N[C@@H](CO)C(=O)N[C@H](C(=O)N[C@@H](CC(N)=O)C(=O)N[C@H](C(=O)NCC(=O)N[C@@H](CCCCN)C(=O)N[C@@H](CC(N)=O)C(=O)N[C@H](C(=O)N[C@@H](Cc1ccc(O)cc1)C(N)=O)[C@@H](C)O)C(C)C)[C@@H](C)O, Synthetic acylated analogue of human amylin; also called compound 36)",6.8,0.189,1.28
"K([γGlu-γGlu-C20 diacid])CNTATCATQRLADFLRHSSNPFGAPLSSTNVGSDTY-NH2 (disulfide 2-7; N-terminus assumed; SMILES CC(C)C[C@H](NC(=O)[C@H](CCCNC(=N)N)NC(=O)[C@H](CCC(N)=O)NC(=O)[C@@H](NC(=O)[C@H](C)NC(=O)[C@@H]1CSSC[C@H](NC(=O)[C@@H](N)CCCCNC(=O)CC[C@H](NC(=O)CC[C@H](NC(=O)CCCCCCCCCCCCCCCCCCC(=O)O)C(=O)O)C(=O)O)C(=O)N[C@@H](CC(N)=O)C(=O)N[C@@H]([C@@H](C)O)C(=O)N[C@@H](C)C(=O)N[C@@H]([C@@H](C)O)C(=O)N1)[C@@H](C)O)C(=O)N[C@@H](C)C(=O)N[C@@H](CC(=O)O)C(=O)N[C@@H](Cc1ccccc1)C(=O)N[C@@H](CC(C)C)C(=O)N[C@@H](CCCNC(=N)N)C(=O)N[C@@H](Cc1c[nH]cn1)C(=O)N[C@@H](CO)C(=O)N[C@@H](CO)C(=O)N[C@@H](CC(N)=O)C(=O)N1CCC[C@H]1C(=O)N[C@@H](Cc1ccccc1)C(=O)NCC(=O)N[C@@H](C)C(=O)N1CCC[C@H]1C(=O)N[C@@H](CC(C)C)C(=O)N[C@@H](CO)C(=O)N[C@@H](CO)C(=O)N[C@H](C(=O)N[C@@H](CC(N)=O)C(=O)N[C@H](C(=O)NCC(=O)N[C@@H](CO)C(=O)N[C@@H](CC(=O)O)C(=O)N[C@H](C(=O)N[C@@H](Cc1ccc(O)cc1)C(N)=O)[C@@H](C)O)C(C)C)[C@@H](C)O, Synthetic acylated analogue of human amylin; also called compound 3)",6.7,0.205,1.38
"K([AEEA-γGlu-C20 diacid])CNTATCATQRLANFLRHSSPNFGAIPSSTNVGSNTY-NH2 (disulfide 2-7; N-terminus assumed; SMILES CC[C@H](C)[C@H](NC(=O)[C@H](C)NC(=O)CNC(=O)[C@H](Cc1ccccc1)NC(=O)[C@H](CC(N)=O)NC(=O)[C@@H]1CCCN1C(=O)[C@H](CO)NC(=O)[C@H](CO)NC(=O)[C@H](Cc1c[nH]cn1)NC(=O)[C@H](CCCNC(=N)N)NC(=O)[C@H](CC(C)C)NC(=O)[C@H](Cc1ccccc1)NC(=O)[C@H](CC(N)=O)NC(=O)[C@H](C)NC(=O)[C@H](CC(C)C)NC(=O)[C@H](CCCNC(=N)N)NC(=O)[C@H](CCC(N)=O)NC(=O)[C@@H](NC(=O)[C@H](C)NC(=O)[C@@H]1CSSC[C@H](NC(=O)[C@@H](N)CCCCNC(=O)COCCOCCNC(=O)CC[C@H](NC(=O)CCCCCCCCCCCCCCCCCCC(=O)O)C(=O)O)C(=O)N[C@@H](CC(N)=O)C(=O)N[C@@H]([C@@H](C)O)C(=O)N[C@@H](C)C(=O)N[C@@H]([C@@H](C)O)C(=O)N1)[C@@H](C)O)C(=O)N1CCC[C@H]1C(=O)N[C@@H](CO)C(=O)N[C@@H](CO)C(=O)N[C@H](C(=O)N[C@@H](CC(N)=O)C(=O)N[C@H](C(=O)NCC(=O)N[C@@H](CO)C(=O)N[C@@H](CC(N)=O)C(=O)N[C@H](C(=O)N[C@@H](Cc1ccc(O)cc1)C(N)=O)[C@@H](C)O)C(C)C)[C@@H](C)O, Synthetic acylated analogue of human amylin; also called compound 41)",16.7,0.26,4.35
"{C20 diacid-γGlu}-KCNTATCATQRLAEFLRHSSPNFGPILPPTNVGSNTY-NH2 (disulfide 2-7; SMILES CC[C@H](C)[C@H](NC(=O)[C@@H]1CCCN1C(=O)CNC(=O)[C@H](Cc1ccccc1)NC(=O)[C@H](CC(N)=O)NC(=O)[C@@H]1CCCN1C(=O)[C@H](CO)NC(=O)[C@H](CO)NC(=O)[C@H](Cc1c[nH]cn1)NC(=O)[C@H](CCCNC(=N)N)NC(=O)[C@H](CC(C)C)NC(=O)[C@H](Cc1ccccc1)NC(=O)[C@H](CCC(=O)O)NC(=O)[C@H](C)NC(=O)[C@H](CC(C)C)NC(=O)[C@H](CCCNC(=N)N)NC(=O)[C@H](CCC(N)=O)NC(=O)[C@@H](NC(=O)[C@H](C)NC(=O)[C@@H]1CSSC[C@H](NC(=O)[C@H](CCCCN)NC(=O)CC[C@H](NC(=O)CCCCCCCCCCCCCCCCCCC(=O)O)C(=O)O)C(=O)N[C@@H](CC(N)=O)C(=O)N[C@@H]([C@@H](C)O)C(=O)N[C@@H](C)C(=O)N[C@@H]([C@@H](C)O)C(=O)N1)[C@@H](C)O)C(=O)N[C@@H](CC(C)C)C(=O)N1CCC[C@H]1C(=O)N1CCC[C@H]1C(=O)N[C@H](C(=O)N[C@@H](CC(N)=O)C(=O)N[C@H](C(=O)NCC(=O)N[C@@H](CO)C(=O)N[C@@H](CC(N)=O)C(=O)N[C@H](C(=O)N[C@@H](Cc1ccc(O)cc1)C(N)=O)[C@@H](C)O)C(C)C)[C@@H](C)O, Synthetic acylated analogue of human amylin; also called compound 6)",5.7,0.128,0.729
"K([AEEA-C20 diacid])CNTATCATQRLANFLRHSSPNFGAIPSSTNVGSNTY-NH2 (disulfide 2-7; N-terminus assumed; SMILES CC[C@H](C)[C@H](NC(=O)[C@H](C)NC(=O)CNC(=O)[C@H](Cc1ccccc1)NC(=O)[C@H](CC(N)=O)NC(=O)[C@@H]1CCCN1C(=O)[C@H](CO)NC(=O)[C@H](CO)NC(=O)[C@H](Cc1c[nH]cn1)NC(=O)[C@H](CCCNC(=N)N)NC(=O)[C@H](CC(C)C)NC(=O)[C@H](Cc1ccccc1)NC(=O)[C@H](CC(N)=O)NC(=O)[C@H](C)NC(=O)[C@H](CC(C)C)NC(=O)[C@H](CCCNC(=N)N)NC(=O)[C@H](CCC(N)=O)NC(=O)[C@@H](NC(=O)[C@H](C)NC(=O)[C@@H]1CSSC[C@H](NC(=O)[C@@H](N)CCCCNC(=O)COCCOCCNC(=O)CCCCCCCCCCCCCCCCCCC(=O)O)C(=O)N[C@@H](CC(N)=O)C(=O)N[C@@H]([C@@H](C)O)C(=O)N[C@@H](C)C(=O)N[C@@H]([C@@H](C)O)C(=O)N1)[C@@H](C)O)C(=O)N1CCC[C@H]1C(=O)N[C@@H](CO)C(=O)N[C@@H](CO)C(=O)N[C@H](C(=O)N[C@@H](CC(N)=O)C(=O)N[C@H](C(=O)NCC(=O)N[C@@H](CO)C(=O)N[C@@H](CC(N)=O)C(=O)N[C@H](C(=O)N[C@@H](Cc1ccc(O)cc1)C(N)=O)[C@@H](C)O)C(C)C)[C@@H](C)O, Synthetic acylated analogue of human amylin; also called compound 43) [N^ε1-[2-[2-[2-(19-carboxynonadecanoylamino)ethoxy]ethoxy]acetyl]-[Arg17,Pro21,Pro27]-h-amylin]",6.5,0.141,0.92

# Source: patent US20140087995A1 (published 2014)
